The values below are quoted from earlier work in publication PMC4321732.

The Kd is the free concentration of one partner at which half of the binding sites on the other are occupied at equilibrium, for simple one-to-one binding.

Data set [1] addresses Histone H4K20me2 (Homo sapiens) (UniProt P62805).
Data set [2] addresses p53K370me2 (Homo sapiens) (UniProt P04637).
In data set [3] the target is p53K382me2 (Homo sapiens) (UniProt P04637).
Sequence of p53K382me2 (Homo sapiens) (P04637 whole entry): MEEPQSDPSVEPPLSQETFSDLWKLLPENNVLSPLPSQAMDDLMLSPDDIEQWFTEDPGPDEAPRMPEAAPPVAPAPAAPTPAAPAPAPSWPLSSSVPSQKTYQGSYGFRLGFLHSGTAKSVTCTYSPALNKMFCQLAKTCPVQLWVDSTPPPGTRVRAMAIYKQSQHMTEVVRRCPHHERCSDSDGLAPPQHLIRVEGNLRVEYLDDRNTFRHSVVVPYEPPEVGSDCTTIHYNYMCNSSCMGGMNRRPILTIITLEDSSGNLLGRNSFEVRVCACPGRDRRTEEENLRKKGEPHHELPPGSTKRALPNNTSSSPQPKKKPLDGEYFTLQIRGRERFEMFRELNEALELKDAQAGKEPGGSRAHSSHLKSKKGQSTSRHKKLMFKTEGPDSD

Sequence of 53BP1 TTD tandem Tudor domain (Q12888 1484-1603): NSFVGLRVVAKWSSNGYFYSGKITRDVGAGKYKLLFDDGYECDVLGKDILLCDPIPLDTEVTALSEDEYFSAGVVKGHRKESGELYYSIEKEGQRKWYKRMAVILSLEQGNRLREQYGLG
Sequence of p53K370me2 (Homo sapiens) (P04637 whole entry): as the sequence (P04637 whole entry) above

On to “53BP1 TTD tandem Tudor domain (from UniProt Q12888)”, for which the equilibrium dissociation constant (Kd) in data set [1] was 1.3 µM; in data set [2], 20 µM; in data set [3] it was 0.9 µM.
